The target in test [1] is Ddi1 (UniProt P40087). The test can be described thus: anti-Flag affinity purification of 26S proteasome, immunoblot densitometry. Conditions: no detergent in binding; normalized to Rpn11FLAG; parent: est. 100; read off a plot.
Test [2] has as its target Dsk2 (UniProt P48510). The description is as above. Conditions: no detergent in binding; normalized to Rpn11FLAG; parent: est. 100; read off a plot.
In test [3] the target is Rad23 (UniProt P32628). Described as above. Particulars: no detergent in binding; normalized to Rpn11FLAG; parent: est. 100; read off a plot.
The target of test [4] is Ubp6 (UniProt P43593). The test is described as above. Conditions: no detergent in binding; normalized to Rpn11FLAG; parent: est. 100; read off a plot.
In test [5] the target is 26S proteasome from rpn13Δ cells (Rpn11-Flag) (S. cerevisiae) (UniProt P38764). The test can be described thus: affinity purification with mass spectrometry; SILAC: rpn13Δ cells heavy, rpn13Δ rpn1-D517A cells light, mixed 1:1 before lysis; proteasomes purified on anti-Flag resin, eluted in 8 M urea.
UniProt P38764, sequence (P38764 whole entry, looked up, stated change not applied): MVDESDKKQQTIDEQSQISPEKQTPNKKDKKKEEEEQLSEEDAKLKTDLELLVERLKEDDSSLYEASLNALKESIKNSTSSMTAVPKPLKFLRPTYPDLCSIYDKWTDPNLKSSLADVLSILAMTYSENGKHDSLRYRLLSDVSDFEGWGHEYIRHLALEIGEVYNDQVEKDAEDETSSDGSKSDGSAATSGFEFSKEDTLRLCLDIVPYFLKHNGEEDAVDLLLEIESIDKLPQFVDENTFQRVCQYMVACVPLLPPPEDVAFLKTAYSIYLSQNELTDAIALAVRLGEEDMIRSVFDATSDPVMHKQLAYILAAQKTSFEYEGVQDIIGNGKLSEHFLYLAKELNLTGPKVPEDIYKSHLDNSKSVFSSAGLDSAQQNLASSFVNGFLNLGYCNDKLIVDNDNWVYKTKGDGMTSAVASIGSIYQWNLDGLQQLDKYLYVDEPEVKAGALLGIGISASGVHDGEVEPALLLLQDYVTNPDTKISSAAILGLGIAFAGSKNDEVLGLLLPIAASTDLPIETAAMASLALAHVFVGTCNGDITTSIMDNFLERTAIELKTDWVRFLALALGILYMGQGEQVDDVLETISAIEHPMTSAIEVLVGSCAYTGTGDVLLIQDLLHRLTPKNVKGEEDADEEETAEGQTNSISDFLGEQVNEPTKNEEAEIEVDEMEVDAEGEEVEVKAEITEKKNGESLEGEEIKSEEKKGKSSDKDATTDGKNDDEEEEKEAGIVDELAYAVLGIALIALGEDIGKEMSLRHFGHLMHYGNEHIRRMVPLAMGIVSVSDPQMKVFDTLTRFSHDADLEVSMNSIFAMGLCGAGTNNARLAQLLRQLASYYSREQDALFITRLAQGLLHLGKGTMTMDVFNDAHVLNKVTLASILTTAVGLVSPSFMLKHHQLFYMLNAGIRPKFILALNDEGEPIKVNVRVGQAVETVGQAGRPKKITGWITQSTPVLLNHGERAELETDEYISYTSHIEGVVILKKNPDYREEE

UniProt P40087, sequence (P40087 whole entry, looked up): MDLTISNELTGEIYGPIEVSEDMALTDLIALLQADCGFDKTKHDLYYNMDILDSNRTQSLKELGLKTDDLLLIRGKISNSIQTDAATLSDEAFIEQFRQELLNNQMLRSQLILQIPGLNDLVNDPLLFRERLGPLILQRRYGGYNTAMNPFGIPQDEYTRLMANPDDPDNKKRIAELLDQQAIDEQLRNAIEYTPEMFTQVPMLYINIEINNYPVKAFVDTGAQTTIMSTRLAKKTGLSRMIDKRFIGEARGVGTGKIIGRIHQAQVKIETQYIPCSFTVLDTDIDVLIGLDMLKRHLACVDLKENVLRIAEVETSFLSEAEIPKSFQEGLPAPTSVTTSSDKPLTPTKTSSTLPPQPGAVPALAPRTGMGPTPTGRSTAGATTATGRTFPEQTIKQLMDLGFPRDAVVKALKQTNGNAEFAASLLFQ
UniProt P48510, sequence (P48510 whole entry, looked up): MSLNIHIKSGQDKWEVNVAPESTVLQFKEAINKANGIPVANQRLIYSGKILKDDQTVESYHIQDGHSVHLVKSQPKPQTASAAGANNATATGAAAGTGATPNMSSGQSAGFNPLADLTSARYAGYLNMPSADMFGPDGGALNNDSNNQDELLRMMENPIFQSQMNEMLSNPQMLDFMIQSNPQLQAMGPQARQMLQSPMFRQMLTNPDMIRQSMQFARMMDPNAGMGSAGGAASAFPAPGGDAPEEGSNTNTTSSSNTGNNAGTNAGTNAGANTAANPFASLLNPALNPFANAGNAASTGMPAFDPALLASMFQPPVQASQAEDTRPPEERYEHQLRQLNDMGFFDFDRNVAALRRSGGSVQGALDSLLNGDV

For the molecule “26S proteasome from rpn13Δ cells (Rpn11-Flag) (from UniProt P38764;P43588) D517A”, the percent of parent (% Protein Relative to WT) in test [1] came out at 29; in test [2], 61; in test [3], 76; in test [4] it was 110.
For “26S proteasome from rpn13Δ cells (Rpn11-Flag) (from UniProt P38764;P43588) K484A”, the percent of parent (% Protein Relative to WT) in test [1] was 80; in test [2] it was 86; in test [3], 95; in test [4] it was 110.
For “Ubp6 (from UniProt P43593 1-499) (enzyme)”, the SILAC H/L ratio (rpn13Δ proteasomes, heavy, over rpn13Δ rpn1-D517A proteasomes, light) in test [5] amounted to 0.98.

B1: Rad23 (natural protein)
chain: MVSLTFKNFKKEKVPLDLEPSNTILETKTKLAQSISCEESQIKLIYSGKVLQDSKTVSECGLKDGDQVVFMVSQKKSTKTKVTEPPIAPESATTPGRENSTEASPSTDASAAPAATAPEGSQPQEEQTATTERTESASTPGFVVGTERNETIERIMEMGYQREEVERALRAAFNNPDRAVEYLLMGIPENLRQPEPQQQTAAAAEQPSTAATTAEQPAEDDLFAQAAQGGNASSGALGTTGGATDAAQGGPPGSIGLTVEDLLSLRQVVSGNPEALAPLLENISARYPQLREHIMANPEVFVSMLLEAVGDNMQDVMEGADDMVEGEDIEVTGEAAAAGLGQGEGEGSFQVDYTPEDDQAISRLCELGFERDLVIQVYFACDKNEEAAANILFSDHAD
Regarding B1, in test [5], the SILAC H/L ratio (rpn13Δ proteasomes, heavy, over rpn13Δ rpn1-D517A proteasomes, light) was found to be 0.9.

These data come from article PMC3126750.
